Consider 19 molecules from US20250145729A1 (DENALI THERAPEUTICS, published 2025).

The term Kd denotes a measure of binding affinity in units of concentration. Low values mean tighter binding, high ones weaker binding.

Experiment [1] concerns the target T1, circularly permuted human TfR apical domain (human).
T1 construct: TfR residues 326-379 stand N-terminal to 194-296, loop 297-325 deleted; also called huTfR Apical Domain
T1 chain: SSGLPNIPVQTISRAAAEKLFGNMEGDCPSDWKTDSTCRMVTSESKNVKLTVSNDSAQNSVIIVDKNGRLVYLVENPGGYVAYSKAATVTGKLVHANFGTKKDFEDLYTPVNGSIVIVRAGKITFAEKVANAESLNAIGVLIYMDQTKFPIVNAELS
Put plainly: SPR, supernatant, anti-Fab capture. As to the method: (§1) Clones were expressed in HEK293 cells. Supernatants were captured for SPR by GE Healthcare anti-human Fab capture kit and the affinity to human and cyno TfR apical domain was measured (Table 30). The clones in Table 30 were bivalent and each TfR-binding Fc polypeptide also contained P329G and LALA mutations.
Background: Surface plasmon resonance follows binding to a sensor surface in real time, without labels.

Experiment [2] addresses T2, circularly permuted cyno TfR apical domain (cynomolgus monkey).
T2 construct: same design as the human construct; also called cyTfR Apical Domain; cynomolgus TfR apical domain
T2 chain: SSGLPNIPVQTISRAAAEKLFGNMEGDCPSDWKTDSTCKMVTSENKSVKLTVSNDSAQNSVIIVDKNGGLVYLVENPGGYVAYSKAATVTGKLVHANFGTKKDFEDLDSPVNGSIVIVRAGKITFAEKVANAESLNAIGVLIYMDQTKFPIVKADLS
Put plainly: SPR, supernatant, anti-Fab capture. As to the method:
as §1

B1: 42.8.216 (Fc fusion)
chain: APEAAGGPSVFLFPPKPKDTLMISRTPEVTCVVVDVSHEDPEVKFNWYVDGVEVHNAKTKPREEQYNSTYRVVSVLTVLHQDWLNGKEYKCKVSNKALGAPIEKTISKAKGQPREPQVYTLPPSRDELTKNQVSLTCLVKGFYPSDIAVEWFYEDSKLSNYKTTPPVLDSDGSFFLYSKLTVDKSRWQQGNLFACEVMHEALHNHYTYKLLSLSPGK
notes: bivalent; P329G+LALA
Turning to B1, the Kd in experiment [1] is 0.421 µM; in experiment [2] it was 5.85 µM.

B2: 42.8.188 (Fc fusion)
chain: APEAAGGPSVFLFPPKPKDTLMISRTPEVTCVVVDVSHEDPEVKFNWYVDGVEVHNAKTKPREEQYNSTYRVVSVLTVLHQDWLNGKEYKCKVSNKALGAPIEKTISKAKGQPREPQVYTLPPSRDELTKNQVSLTCLVKGFYPSDIAVEWFYEGSKETNYKTTPPVLDSDGSFFLYSKLTVDKSRWQQGNLFACEVMHEALHNHYTYKLLSLSPGK
notes: bivalent; P329G+LALA
As to B2, the Kd amounted to 1.03 µM in experiment [1] and 12.5 µM in experiment [2].

B3: 42.2 (Fc fusion)
chain: APEAAGGPSVFLFPPKPKDTLMISRTPEVTCVVVDVSHEDPEVKFNWYVDGVEVHNAKTKPREEQYNSTYRVVSVLTVLHQDWLNGKEYKCKVSNKALGAPIEKTISKAKGQPREPQVYTLPPSRDELTKNQVSLTCLVKGFYPSDIAVEWFSDGSKETNYKTTPPVLDSDGSFFLYSKLTVDKSRWQQGNLFACEVMHEALHNHYTYKLLSLSPGK
notes: bivalent; P329G+LALA; also called 6.5.11.5.42.2
On to B3, for which the Kd was 1 µM in experiment [1] and 7.5 µM in experiment [2].

B4: 42.8.65 (Fc fusion)
chain: APEAAGGPSVFLFPPKPKDTLMISRTPEVTCVVVDVSHEDPEVKFNWYVDGVEVHNAKTKPREEQYNSTYRVVSVLTVLHQDWLNGKEYKCKVSNKALGAPIEKTISKAKGQPREPQVYTLPPSRDELTKNQVSLTCLVKGFYPSDIAVEWFSDDQKLTNYKTTPPVLDSDGSFFLYSKLTVDKSRWQQGNLFACEVMHEALHNHYTYKLLSLSPGK
notes: bivalent; P329G+LALA
Consider B4, for which the values for the dissociation constant Kd in experiment [1] and in experiment [2] were 3.94 µM and 10.3 µM, respectively.

B5: 42.8.122 (Fc fusion)
chain: APEAAGGPSVFLFPPKPKDTLMISRTPEVTCVVVDVSHEDPEVKFNWYVDGVEVHNAKTKPREEQYNSTYRVVSVLTVLHQDWLNGKEYKCKVSNKALGAPIEKTISKAKGQPREPQVYTLPPSRDELTKNQVSLTCLVKGFYPSDIAVEWFYGAQKETNYKTTPPVLDSDGSFFLYSKLTVDKSRWQQGNLFACEVMHEALHNHYTYKLLSLSPGK
notes: bivalent; P329G+LALA
Turning to B5, the Kd was determined as 3.91 µM in experiment [1] and 9.84 µM in experiment [2].

B6: 42.2.19 (Fc fusion)
chain: APEAAGGPSVFLFPPKPKDTLMISRTPEVTCVVVDVSHEDPEVKFNWYVDGVEVHNAKTKPREEQYNSTYRVVSVLTVLHQDWLNGKEYKCKVSNKALGAPIEKTISKAKGQPREPQVYTLPPSRDELTKNQVSLTCLVKGFYPSDIAVEWFYDDSKLTNYKTTPPVLDSDGSFFLYSKLTVDKSRWQPRGLFACEVMHEALHNHYTYKLLGESPGK
notes: P329G+LALA
In the case of B6, the Kd in experiment [1] turned out to be 0.08 µM; in experiment [2], 1 µM.

B7: 42.8.9 (Fc fusion)
chain: APEAAGGPSVFLFPPKPKDTLMISRTPEVTCVVVDVSHEDPEVKFNWYVDGVEVHNAKTKPREEQYNSTYRVVSVLTVLHQDWLNGKEYKCKVSNKALGAPIEKTISKAKGQPREPQVYTLPPSRDELTKNQVSLTCLVKGFYPSDIAVEWFSGGSKESNYKTTPPVLDSDGSFFLYSKLTVDKSRWQQGNLFACEVMHEALHNHYTYKLLSLSPGK
notes: bivalent; P329G+LALA
Turning to B7, the results for the Kd in experiment [1] and in experiment [2] were 1.85 µM and 14.3 µM, respectively.

B8: 42.8.79 (Fc fusion)
chain: APEAAGGPSVFLFPPKPKDTLMISRTPEVTCVVVDVSHEDPEVKFNWYVDGVEVHNAKTKPREEQYNSTYRVVSVLTVLHQDWLNGKEYKCKVSNKALGAPIEKTISKAKGQPREPQVYTLPPSRDELTKNQVSLTCLVKGFYPSDIAVEWFSEGSKENNYKTTPPVLDSDGSFFLYSKLTVDKSRWQQGNLFACEVMHEALHNHYTYKLLSLSPGK
notes: bivalent; P329G+LALA
Take B8: the Kd is 3.07 µM in experiment [1] and 28.6 µM in experiment [2].

B9: 42.8.72 (Fc fusion)
chain: APEAAGGPSVFLFPPKPKDTLMISRTPEVTCVVVDVSHEDPEVKFNWYVDGVEVHNAKTKPREEQYNSTYRVVSVLTVLHQDWLNGKEYKCKVSNKALGAPIEKTISKAKGQPREPQVYTLPPSRDELTKNQVSLTCLVKGFYPSDIAVEWFSDDSKLSNYKTTPPVLDSDGSFFLYSKLTVDKSRWQQGNLFACEVMHEALHNHYTYKLLSLSPGK
notes: bivalent; P329G+LALA
In the case of B9, the Kd in experiment [1] was 2.71 µM; in experiment [2], 13.4 µM.

B10: 42.8.78 (Fc fusion)
chain: APEAAGGPSVFLFPPKPKDTLMISRTPEVTCVVVDVSHEDPEVKFNWYVDGVEVHNAKTKPREEQYNSTYRVVSVLTVLHQDWLNGKEYKCKVSNKALGAPIEKTISKAKGQPREPQVYTLPPSRDELTKNQVSLTCLVKGFYPSDIAVEWFSEGQKLSNYKTTPPVLDSDGSFFLYSKLTVDKSRWQQGNLFACEVMHEALHNHYTYKLLSLSPGK
notes: bivalent; P329G+LALA
As to B10, the Kd in experiment [1] stood at 0.972 µM; in experiment [2], 6.74 µM.

B11: 42.2.1-20 (Fc fusion)
chain: APEAAGGPSVFLFPPKPKDTLMISRTPEVTCVVVDVSHEDPEVKFNWYVDGVEVHNAKTKPREEQYNSTYRVVSVLTVLHQDWLNGKEYKCKVSNKALGAPIEKTISKAKGQPREPQVYTLPPSRDELTKNQVSLTCLVKGFYPSDIAVEWFADASKQRNYKTTPPVLDSDGSFFLYSKLTVDKSRWQQGNLFACEVMHEALHNHYTYKLLSLSPGK
notes: P329G+LALA
As for B11, the Kd is 0.44 µM in experiment [1] and 7 µM in experiment [2].

B12: 42.8.10 (Fc fusion)
chain: APEAAGGPSVFLFPPKPKDTLMISRTPEVTCVVVDVSHEDPEVKFNWYVDGVEVHNAKTKPREEQYNSTYRVVSVLTVLHQDWLNGKEYKCKVSNKALGAPIEKTISKAKGQPREPQVYTLPPSRDELTKNQVSLTCLVKGFYPSDIAVEWFSGGSKLNNYKTTPPVLDSDGSFFLYSKLTVDKSRWQQGNLFACEVMHEALHNHYTYKLLSLSPGK
notes: bivalent; P329G+LALA
As to B12, the Kd in experiment [1] was determined as 3.76 µM; in experiment [2], 11.1 µM.

B13: 42.2.3-5 (Fc fusion)
chain: APEAAGGPSVFLFPPKPKDTLMISRTPEVTCVVVDVSHEDPEVKFNWYVDGVEVHNAKTKPREEQYNSTYRVVSVLTVLHQDWLNGKEYKCKVSNKALGAPIEKTISKAKGQPREPQVYTLPPSRDELTKNQVSLTCLVKGFYPSDIAVEWFYGNGKETNYKTTPPVLDSDGSFFLYSKLTVDKSRWQQGNLFACEVMHEALHNHYTYKLLSLSPGK
notes: P329G+LALA
In the case of B13, the Kd in experiment [1] amounted to 0.26 µM; in experiment [2], 1.8 µM.

B14: 42.8.15 (Fc fusion)
chain: APEAAGGPSVFLFPPKPKDTLMISRTPEVTCVVVDVSHEDPEVKFNWYVDGVEVHNAKTKPREEQYNSTYRVVSVLTVLHQDWLNGKEYKCKVSNKALGAPIEKTISKAKGQPREPQVYTLPPSRDELTKNQVSLTCLVKGFYPSDIAVEWFSGAQKESNYKTTPPVLDSDGSFFLYSKLTVDKSRWQQGNLFACEVMHEALHNHYTYKLLSLSPGK
notes: bivalent; P329G+LALA
As to B14, the Kd in experiment [1] was 5.96 µM; in experiment [2], 27 µM.

B15: 42.8.129 (Fc fusion)
chain: APEAAGGPSVFLFPPKPKDTLMISRTPEVTCVVVDVSHEDPEVKFNWYVDGVEVHNAKTKPREEQYNSTYRVVSVLTVLHQDWLNGKEYKCKVSNKALGAPIEKTISKAKGQPREPQVYTLPPSRDELTKNQVSLTCLVKGFYPSDIAVEWFYGASKESNYKTTPPVLDSDGSFFLYSKLTVDKSRWQQGNLFACEVMHEALHNHYTYKLLSLSPGK
notes: bivalent; P329G+LALA
For the molecule B15, the Kd came to 0.858 µM in experiment [1] and 3.14 µM in experiment [2].

B16: 42.8.111 (Fc fusion)
chain: APEAAGGPSVFLFPPKPKDTLMISRTPEVTCVVVDVSHEDPEVKFNWYVDGVEVHNAKTKPREEQYNSTYRVVSVLTVLHQDWLNGKEYKCKVSNKALGAPIEKTISKAKGQPREPQVYTLPPSRDELTKNQVSLTCLVKGFYPSDIAVEWFYGGQKESNYKTTPPVLDSDGSFFLYSKLTVDKSRWQQGNLFACEVMHEALHNHYTYKLLSLSPGK
notes: bivalent; P329G+LALA
As for B16, the results for the Kd in experiment [1] and in experiment [2] were 1.88 µM and 19.1 µM, respectively.

B17: 42.8.93 (Fc fusion)
chain: APEAAGGPSVFLFPPKPKDTLMISRTPEVTCVVVDVSHEDPEVKFNWYVDGVEVHNAKTKPREEQYNSTYRVVSVLTVLHQDWLNGKEYKCKVSNKALGAPIEKTISKAKGQPREPQVYTLPPSRDELTKNQVSLTCLVKGFYPSDIAVEWFSEASKESNYKTTPPVLDSDGSFFLYSKLTVDKSRWQQGNLFACEVMHEALHNHYTYKLLSLSPGK
notes: bivalent; P329G+LALA
On to B17, for which the Kd amounted to 5 µM in experiment [1] and 17.6 µM in experiment [2].

B18: 42.8.134 (Fc fusion)
chain: APEAAGGPSVFLFPPKPKDTLMISRTPEVTCVVVDVSHEDPEVKFNWYVDGVEVHNAKTKPREEQYNSTYRVVSVLTVLHQDWLNGKEYKCKVSNKALGAPIEKTISKAKGQPREPQVYTLPPSRDELTKNQVSLTCLVKGFYPSDIAVEWFYGDQKETNYKTTPPVLDSDGSFFLYSKLTVDKSRWQQGNLFACEVMHEALHNHYTYKLLSLSPGK
notes: bivalent; P329G+LALA
With B18, the dissociation constant Kd in experiment [1] was 1.24 µM; in experiment [2], 13.2 µM.

B19: 42.8.80 (Fc fusion)
chain: APEAAGGPSVFLFPPKPKDTLMISRTPEVTCVVVDVSHEDPEVKFNWYVDGVEVHNAKTKPREEQYNSTYRVVSVLTVLHQDWLNGKEYKCKVSNKALGAPIEKTISKAKGQPREPQVYTLPPSRDELTKNQVSLTCLVKGFYPSDIAVEWFSEGSKETNYKTTPPVLDSDGSFFLYSKLTVDKSRWQQGNLFACEVMHEALHNHYTYKLLSLSPGK
notes: bivalent; P329G+LALA
As to B19, the Kd worked out at 2.38 µM in experiment [1] and 13.6 µM in experiment [2].
